Results on one molecule are retold here after patent publication US20240228562A1, “NOVEL LIPOCALIN MUTEINS SPECIFIC FOR CONNECTIVE TISSUE GROWTH FACTOR (CTGF)” (PIERIS PHARMACEUTICALS GMBH, priority 2021, published 2024).

The assay concerns CCL-206 lung fibroblasts co-cultured with primary murine Epcam-positive epithelial progenitor cells. Nature of the assay: Lung organoid formation model. In kind it is cell-based. To be noted: 14 days treatment; nintedanib 100 nM; SEQ ID NO: 74 at 100 nM. As to the method:
The effect of CTGF-targeting lipocalin muteins was analyzed using an organoid model for lung regeneration. In this model, CCL-206 lung fibroblasts are co-cultured with freshly isolated primary murine Epcam-positive epithelial progenitor cells, and the number of formed organoids is analyzed after 14 days. TGF-b1 pre-treatment of CCL-206 fibroblasts leads to an impaired organoid formation and resembles an impairment of lung regeneration as for example observed in lung disease, such as IPF. The impaired formation of organoids can be rescued by treatment with different drugs, such as nintedanib, which is used as a positive control in this model. […] Analysis of organoid numbers confirmed the impairment of organoid formation by TGF-b1 stimulation.

B1: SEQ ID NO: 74: fusion protein comprising two CTGF-binding lipocalin muteins (protein)
chain: QDSTSDLIPAPPLSKVPLQQNFQDNQFQGKWYVVGLAGNAILREDKQPAKMFATIYELKEDKSYDVTSVRFEAKSCKYTIKTFVPGSQPGEFTAGYIKSAPGQTSTLVRVVSTNYNQHAMVFFKHVTQNREIFVITLYGRTKELTSELKENFIRFSKSLGLPENHIVFPVPIDQCIDGGGGGSGGGGSGGGGSQDSTSDLIPAPPLSKVPLQQNFQDNQFQGKWYVVGWAGNVKLREDKQPQKMSATIYELKEDKSYDVTEVVFEQKKCHYIIKTFVPGSQPGEFTAGDIKSPPGYTSSLVRVVSTNYNQHAMVFFKKVSQNREFFWITLYGRTKELTSELKENFIRFSKSLGLPENHIVFPVPIDQCIDG
modifications: fusion protein
As for B1, the “Effect on TGF-b1 impaired organoid formation” value is reported as “even stronger trend for improved organoid formation”.
